The supplement of paper PMC10567573

B1: ETS1 (parent)
chain: YVRDRADLNKDKPVIPAAALAGYT

Variants of: B1
Assay: protein stability index of a GFP-peptide fusion (GPS, HEK-293T) (PSI 1-6); higher = more stable
Conditions: c terminus: a fixed tail appended
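Also: lentivirally expressed fusions sorted by FACS into six bins by GFP to DsRed ratio, PSI derived from sequencing read proportions per bin multiplied by bin number.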

Compared with YVRDRADLNKDKPVITAAALAGYT, YVRDRADLNKDKPVILAAALAGYT is higher in protein stability index: 2.14 for the first, 2.52 for the second.

Going from YVRDRADLNKDKPVICAAALAGYT to YVRDRADLNKDKPVIHAAALAGYT, the protein stability index falls from 2.57 to 2.1.

Compared with YVRDRADLNKDKPVIEAAALAGYT, YVRDRADLNKDKPVIGAAALAGYT is lower in protein stability index: 2.05 for the first, 1.93 for the second.

First: YVRDRADLNKDKPVIQAAALAGYT
Second: YVRDRADLNKDKPVIRAAALAGYT
The protein stability index of the first is lower: 2.37 for the first, 3.04 for the second.

Going from YVRDRADLNKDKPVINAAALAGYT to YVRDRADLNKDKPVIFAAALAGYT, the protein stability index rises from 2.33 to 3.22.

Going from YVRDRADLNKDKPVIDAAALAGYT to YVRDRADLNKDKPVIYAAALAGYT, the protein stability index rises from 2.54 to 2.98.

Going from YVRDRADLNKDKPVIIAAALAGYT to YVRDRADLNKDKPVIWAAALAGYT, the protein stability index falls from 2.23 to 2.19.

First: YVRDRADLNKDKPVIMAAALAGYT
Second: YVRDRADLNKDKPVIVAAALAGYT
The protein stability index of the first is higher: 2.56 for the first, 2.44 for the second.

Going from YVRDRADLNKDKPVIKAAALAGYT to YVRDRADLNKDKPVISAAALAGYT, the protein stability index falls from 2.13 to 1.64.

Compared with YVRDRADLNKDKPVIAAAALAGYT, YVRDRADLNKDKPVIPAAADAGYT is lower in protein stability index: 3.14 for the first, 1.55 for the second.

Compared with YVRDRADLNKDKPVIPAAAMAGYT, YVRDRADLNKDKPVIPAAARAGYT is lower in protein stability index: 2.45 for the first, 2.35 for the second.

First: YVRDRADLNKDKPVIPAAAPAGYT
Second: YVRDRADLNKDKPVIPAAAVAGYT
The protein stability index of the first is higher: 2.41 for the first, 2.02 for the second.

First: YVRDRADLNKDKPVIPAAAWAGYT
Second: YVRDRADLNKDKPVIPAAAQAGYT
The protein stability index of the first is higher: 3.22 for the first, 2.79 for the second.

Going from YVRDRADLNKDKPVIPAAANAGYT to YVRDRADLNKDKPVIPAAAGAGYT, the protein stability index rises from 1.94 to 2.02.

Going from YVRDRADLNKDKPVIPAAAYAGYT to YVRDRADLNKDKPVIPAAAHAGYT, the protein stability index falls from 3.18 to 1.89.

Going from YVRDRADLNKDKPVIPAAAKAGYT to YVRDRADLNKDKPVIPAAACAGYT, the protein stability index rises from 1.48 to 2.48.

Compared with YVRDRADLNKDKPVIPAAASAGYT, YVRDRADLNKDKPVIPAAAFAGYT is higher in protein stability index: 1.82 for the first, 2.8 for the second.

Compared with YVRDRADLNKDKPVIPAAAIAGYT, YVRDRADLNKDKPVIPAAAEAGYT is lower in protein stability index: 2.04 for the first, 1.81 for the second.

Compared with YVRDRADLNKDKPVIPAAAAAGYT, YVRDRADLNKDKPVIPAAATAGYT is higher in protein stability index: 2.06 for the first, 2.12 for the second.

Compared with YVRDRADLNKDKDVIPAAALAGYT, YVRDRADLNKDKEVIPAAALAGYT is higher in protein stability index: 1.63 for the first, 1.74 for the second.

First: YVRDRADLNKDKLVIPAAALAGYT
Second: YVRDRADLNKDKMVIPAAALAGYT
The protein stability index of the first is higher: 2.82 for the first, 1.95 for the second.

Compared with YVRDRADLNKDKVVIPAAALAGYT, YVRDRADLNKDKRVIPAAALAGYT is higher in protein stability index: 2.77 for the first, 3.04 for the second.

Going from YVRDRADLNKDKSVIPAAALAGYT to YVRDRADLNKDKFVIPAAALAGYT, the protein stability index rises from 1.62 to 2.85.

First: YVRDRADLNKDKYVIPAAALAGYT
Second: YVRDRADLNKDKQVIPAAALAGYT
The protein stability index of the first is higher: 2.59 for the first, 1.63 for the second.

First: YVRDRADLNKDKAVIPAAALAGYT
Second: YVRDRADLNKDKCVIPAAALAGYT
The protein stability index of the first is lower: 1.53 for the first, 1.8 for the second.

YVRDRADLNKDKKVIPAAALAGYT and YVRDRADLNKDKTVIPAAALAGYT are the same in protein stability index: 2.4 for the first, 2.4 for the second.

First: YVRDRADLNKDKIVIPAAALAGYT
Second: YVRDRADLNKDKHVIPAAALAGYT
The protein stability index of the first is lower: 1.88 for the first, 2.36 for the second.

First: YVRDRADLNKDKNVIPAAALAGYT
Second: YVRDRADLNKDKGVIPAAALAGYT
The protein stability index of the first is higher: 2.46 for the first, 2.23 for the second.

First: YVRDRADLNKDKWVIPAAALAGYT
Second: YVRDRADLNKDKPVIPAAALADYT
The protein stability index of the first is lower: 2.13 for the first, 2.53 for the second.

Compared with YVRDRADLNKDKPVIPAAALAFYT, YVRDRADLNKDKPVIPAAALAAYT is higher in protein stability index: 2.21 for the first, 2.8 for the second.

Going from YVRDRADLNKDKPVIPAAALACYT to YVRDRADLNKDKPVIPAAALAEYT, the protein stability index falls from 2.39 to 1.77.

Compared with YVRDRADLNKDKPPIPAAALAGYT, YVRDRADLNKDKPIIPAAALAGYT is lower in protein stability index: 1.92 for the first, 1.63 for the second.

Going from YVRDRADLNKDKPSIPAAALAGYT to YVRDRADLNKDKPNIPAAALAGYT, the protein stability index falls from 2.84 to 2.34.

First: YVRDRADLNKDKPAIPAAALAGYT
Second: YVRDRADLNKDKPWIPAAALAGYT
The protein stability index of the first is lower: 1.73 for the first, 2.4 for the second.

First: YVRDRADLNKDKPGIPAAALAGYT
Second: YVRDRADLNKDKPEIPAAALAGYT
The protein stability index of the first is higher: 2.18 for the first, 1.97 for the second.

Compared with YVRDRADLNKDKPLIPAAALAGYT, YVRDRADLNKDKPQIPAAALAGYT is lower in protein stability index: 2.79 for the first, 1.4 for the second.

Going from YVRDRADLNKDKPYIPAAALAGYT to YVRDRADLNKDKPCIPAAALAGYT, the protein stability index rises from 1.8 to 2.54.

Going from YVRDRADLNKDKPMIPAAALAGYT to YVRDRADLNKDKPKIPAAALAGYT, the protein stability index falls from 2.75 to 2.34.

First: YVRDRADLNKDKPHIPAAALAGYT
Second: YVRDRADLNKDKPRIPAAALAGYT
The protein stability index of the first is lower: 2.23 for the first, 2.67 for the second.

Compared with YVRDRADLNKDKPTIPAAALAGYT, YVRDRADLNKDKPDIPAAALAGYT is lower in protein stability index: 2.66 for the first, 2.17 for the second.

Compared with YVRDRADLNKDKPFIPAAALAGYT, YVRDRADLNKDKPVIPAADLAGYT is lower in protein stability index: 2.99 for the first, 2.07 for the second.

First: YVRDRADLNKDKPVIPAAHLAGYT
Second: YVRDRADLNKDKPVIPAAFLAGYT
The protein stability index of the first is lower: 1.75 for the first, 3.59 for the second.

Compared with YVRDRADLNKDKPVIPAALLAGYT, YVRDRADLNKDKPVIPAAGLAGYT is higher in protein stability index: 1.55 for the first, 2.62 for the second.

Going from YVRDRADLNKDKPVIPAARLAGYT to YVRDRADLNKDKPVIPAAVLAGYT, the protein stability index rises from 2.53 to 3.93.

First: YVRDRADLNKDKPVIPAAMLAGYT
Second: YVRDRADLNKDKPVIPAATLAGYT
The protein stability index of the first is lower: 1.63 for the first, 2.17 for the second.

Compared with YVRDRADLNKDKPVIPAAQLAGYT, YVRDRADLNKDKPVIPAAILAGYT is lower in protein stability index: 2.84 for the first, 2.14 for the second.

First: YVRDRADLNKDKPVIPAANLAGYT
Second: YVRDRADLNKDKPVIPAASLAGYT
The protein stability index of the first is higher: 2.17 for the first, 1.86 for the second.
